Values quoted from earlier work, collected in article PMC10178479.

Target: Mint2 (Homo sapiens) (UniProt Q99767)
Chain of UniProt Q99767 (Q99767 whole entry): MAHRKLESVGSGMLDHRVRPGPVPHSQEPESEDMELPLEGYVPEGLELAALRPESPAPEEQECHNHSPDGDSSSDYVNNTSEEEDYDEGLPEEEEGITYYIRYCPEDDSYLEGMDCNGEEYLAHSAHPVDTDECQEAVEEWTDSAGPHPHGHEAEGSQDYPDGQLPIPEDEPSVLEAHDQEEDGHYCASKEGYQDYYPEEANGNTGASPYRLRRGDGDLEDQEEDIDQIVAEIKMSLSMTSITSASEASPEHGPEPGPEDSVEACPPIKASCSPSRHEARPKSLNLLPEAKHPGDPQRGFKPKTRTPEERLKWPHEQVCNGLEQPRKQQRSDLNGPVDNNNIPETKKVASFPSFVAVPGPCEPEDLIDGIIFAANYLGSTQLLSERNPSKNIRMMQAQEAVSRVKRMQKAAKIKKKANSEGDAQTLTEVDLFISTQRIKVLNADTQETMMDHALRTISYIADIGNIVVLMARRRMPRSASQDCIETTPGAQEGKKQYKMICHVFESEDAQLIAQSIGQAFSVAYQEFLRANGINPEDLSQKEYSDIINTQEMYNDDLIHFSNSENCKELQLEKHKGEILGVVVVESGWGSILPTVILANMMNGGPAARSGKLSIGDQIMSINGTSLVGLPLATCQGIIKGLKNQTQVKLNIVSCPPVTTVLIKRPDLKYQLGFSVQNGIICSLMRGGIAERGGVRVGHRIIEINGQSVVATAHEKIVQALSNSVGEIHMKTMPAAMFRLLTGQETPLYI

- Ki: 4 µM
Substance: APP peptide (APPWT)
